In article PMC3157743, “An Examination by Site-Directed Mutagenesis of Putative Key Residues in the Determination of Coenzyme Specificity in Clostridial NAD^+-Dependent Glutamate Dehydrogenase” (Enzyme Research, 2011):

B1: Clostridium symbiosum NAD^+-specific GDH (CsGDH) ([Clostridium] symbiosum) (protein)
chain: SKYVDRVIAEVEKKYADEPEFVQTVEEVLSSLGPVVDAHPEYEEVALLERMVIPERVIEFRVPWEDDNGKVHVNTGYRVQFNGAIGPYKGGLRFAPSVNLSIMKFLGFEQAFKDSLTTLPMGGAKGGSDFDPNGKSDREVMRFCQAFMTELYRHIGPDIDVPAGDLGVGAREIGYMYGQYRKIVGGFYNGVLTGKARSFGGSLVRPEATGYGSVYYVEAVMKHENDTLVGKTVALAGFGNVAWGAAKKLAELGAKAVTLSGPDGYIYDPEGITTEEKINYMLEMRASGRNKVQDYADKFGVQFFPGEKPWGQKVDIIMPCATQNDVDLEQAKKIVANNVKYYIEVANMPTTNEALRFLMQQPNMVVAPSKAVNAGGVLVSGFEMSQNSERLSWTAEEVDSKLHQVMTDIHDGSAAAAERYGLGYNLVAGANIVGFQKIADAMMAQGIAW
notes: full-length recombinant wild-type gdh in ptac85, expressed in E. coli, purified on Remazol Red Sepharose; no tag mentioned

What was measured:
Assay in all cases: initial rates, A340 decrease or fluorescence
Assay type in all cases: biochemical, [Clostridium] symbiosum
Details in all cases: 20 mM 2-oxoglutarate, 100 mM NH4Cl, 0.1 M potassium phosphate pH 7.0, 25 °C
[1] = system: T1, NC(=O)C1=CN([C@@H]2O[C@H](COP(=O)(O)OP(=O)(O)OC[C@H]3O[C@@H](n4cnc5c(N)ncnc54)[C@H](OP(=O)(O)O)[C@@H]3O)[C@@H](O)[C@H]2O)C=CC1
T1 construct: full-length recombinant wild-type gdh in ptac85, expressed in E. coli, purified on Remazol Red Sepharose; no tag mentioned
Excerpt: (§1) initial rates, A340 decrease or fluorescence on Clostridium symbiosum NAD^+-specific GDH (CsGDH)

[2] = system: T2, NC(=O)C1=CN([C@@H]2O[C@H](COP(=O)(O)OP(=O)(O)OC[C@H]3O[C@@H](n4cnc5c(N)ncnc54)[C@H](O)[C@@H]3O)[C@@H](O)[C@H]2O)C=CC1
T2 construct: full-length recombinant wild-type gdh in ptac85, expressed in E. coli, purified on Remazol Red Sepharose; no tag mentioned
Excerpt: as §1

[3] = substrate: NC(=O)C1=CN([C@@H]2O[C@H](COP(=O)(O)OP(=O)(O)OC[C@H]3O[C@@H](n4cnc5c(N)ncnc54)[C@H](O)[C@@H]3O)[C@@H](O)[C@H]2O)C=CC1
Excerpt: as §1

[4] = substrate: NC(=O)C1=CN([C@@H]2O[C@H](COP(=O)(O)OP(=O)(O)OC[C@H]3O[C@@H](n4cnc5c(N)ncnc54)[C@H](OP(=O)(O)O)[C@@H]3O)[C@@H](O)[C@H]2O)C=CC1
Excerpt: as §1

Row | Molecule | Km [1] [µM] | kcat [1] [s⁻¹] | kcat/Km [1] [M⁻¹ s⁻¹] | Km [2] [µM] | kcat [2] [s⁻¹] | kcat/Km [2] [M⁻¹ s⁻¹] | Km [3] [µM] | kcat [3] [s⁻¹] | kcat/Km [3] [M⁻¹ s⁻¹] | Km [4] [µM] | kcat [4] [s⁻¹] | kcat/Km [4] [M⁻¹ s⁻¹]
1 | Clostridium symbiosum NAD^+-specific GDH (CsGDH) ([Clostridium] symbiosum; A243G) | 386 ± 50 | 1.87 ± 0.01 | 4840 | 25 ± 1 | 65.1 ± 1.6 | 2.6e+06 |  |  |  |  |  | 
2 | Clostridium symbiosum NAD^+-specific GDH (CsGDH) ([Clostridium] symbiosum; D264K) | 107 ± 20 | 26.3 ± 0.35 | 246000 | 23 ± 2 | 80 ± 2.5 | 3.48e+06 |  |  |  |  |  | 
3 | Clostridium symbiosum NAD^+-specific GDH (CsGDH) ([Clostridium] symbiosum; F239S) | 230 ± 50 | 11.1 ± 0.21 | 48300 | 40 ± 3 | 139 ± 5 | 3.48e+06 |  |  |  |  |  | 
4 | Clostridium symbiosum NAD^+-specific GDH (CsGDH) ([Clostridium] symbiosum; F239S/P263S) | 330 ± 20 | 83.3 ± 3.5 | 252000 | 35 ± 10 | 105 ± 4 | 3e+06 |  |  |  |  |  | 
5 | Clostridium symbiosum NAD^+-specific GDH (CsGDH) ([Clostridium] symbiosum; P263S) | 110 ± 10 | 62.5 ± 1.6 | 568000 | 47 ± 103 | 160 ± 8 | 3.4e+06 |  |  |  |  |  | 
6 | B1 |  |  |  |  |  |  | 20 ± 1 | 130.2 ± 3.1 | 6.5e+06 | 90 ± 11 | 2.87 ± 0.11 | 31900
